Experimental data as given in paper PMC7817830.

Legend:
[1] = biological target: Flag-tagged WT PKM2 expressed in 32D BCR-ABL cells (UniProt P14618); assay: SEC; cell lysate of 32D BCR-ABL cells on Superdex 200 10/300GL, 50 mM phosphate, 0.15 M NaCl, pH 7.2; fractions by UV absorbance and western blot
[2] = biological target: recombinant His-tagged PKM2 after the in vitro SUMOylation reaction (SUMO1 conjugated at K270) (UniProt P14618); assay: SEC; samples of the in vitro SUMOylation reaction (recombinant PKM2 or PKM1 with or without purified SUMO1, E1 and E2); UV absorbance and western blot of the fractions with anti-PKM2 or anti-PKM1; tetramer, dimer, monomer by molecular weight

recombinant His-tagged PKM2 after the in vitro SUMOylation reaction (SUMO1 conjugated at K270) (from UniProt P14618 1-531; P63165 1-97) (enzyme), sequence (P14618 whole entry): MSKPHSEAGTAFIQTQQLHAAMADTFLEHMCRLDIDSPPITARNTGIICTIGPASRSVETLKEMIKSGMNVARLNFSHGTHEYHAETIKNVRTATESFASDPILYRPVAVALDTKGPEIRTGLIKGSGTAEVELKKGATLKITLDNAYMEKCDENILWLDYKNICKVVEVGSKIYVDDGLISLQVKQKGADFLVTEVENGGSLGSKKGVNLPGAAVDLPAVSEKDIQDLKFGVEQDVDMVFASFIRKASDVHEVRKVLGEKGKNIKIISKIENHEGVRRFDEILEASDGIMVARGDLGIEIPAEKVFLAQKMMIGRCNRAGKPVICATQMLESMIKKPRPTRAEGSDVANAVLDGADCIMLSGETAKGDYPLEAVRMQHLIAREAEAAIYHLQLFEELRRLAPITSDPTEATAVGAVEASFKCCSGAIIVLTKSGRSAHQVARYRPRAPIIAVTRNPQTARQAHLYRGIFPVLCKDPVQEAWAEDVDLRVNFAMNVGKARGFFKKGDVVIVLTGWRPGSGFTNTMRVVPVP
recombinant His-tagged PKM2 after the in vitro SUMOylation reaction (SUMO1 conjugated at K270) (from UniProt P14618 1-531; P63165 1-97) (enzyme), sequence (P63165 1-97): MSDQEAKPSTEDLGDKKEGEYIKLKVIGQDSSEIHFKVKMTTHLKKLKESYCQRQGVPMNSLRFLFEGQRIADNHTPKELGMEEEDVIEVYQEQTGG
Flag-tagged WT PKM2 expressed in 32D BCR-ABL cells, P14618 1-531 (enzyme; other documents disagree on this pair), sequence (P14618 whole entry): as the sequence (P14618 whole entry) above

| Substance | stoichiometry N [1] | stoichiometry N [2] |
| --- | --- | --- |
| Flag-tagged WT PKM2 expressed in 32D BCR-ABL cells, P14618 1-531 (enzyme; other documents disagree on this pair) | 2 | – |
| recombinant His-tagged PKM2 after the in vitro SUMOylation reaction (SUMO1 conjugated at K270) (from UniProt P14618 1-531; P63165 1-97) (enzyme) | – | 2 |
